Test results published in patent publication US20100190693.

How the values were obtained:
[1] = target: GST-TORC2 (aa 161-181) Ser171Ala (UniProt Q53ET0)
[2] = target: T1, GST-TORC2 (aa 161-181), wild-type (UniProt Q53ET0)
T1 sequence: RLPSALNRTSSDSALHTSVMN

Sequence of GST-TORC2 (aa 161-181) Ser171Ala (Q53ET0 whole entry S171A, looked up, the tested form may be a part): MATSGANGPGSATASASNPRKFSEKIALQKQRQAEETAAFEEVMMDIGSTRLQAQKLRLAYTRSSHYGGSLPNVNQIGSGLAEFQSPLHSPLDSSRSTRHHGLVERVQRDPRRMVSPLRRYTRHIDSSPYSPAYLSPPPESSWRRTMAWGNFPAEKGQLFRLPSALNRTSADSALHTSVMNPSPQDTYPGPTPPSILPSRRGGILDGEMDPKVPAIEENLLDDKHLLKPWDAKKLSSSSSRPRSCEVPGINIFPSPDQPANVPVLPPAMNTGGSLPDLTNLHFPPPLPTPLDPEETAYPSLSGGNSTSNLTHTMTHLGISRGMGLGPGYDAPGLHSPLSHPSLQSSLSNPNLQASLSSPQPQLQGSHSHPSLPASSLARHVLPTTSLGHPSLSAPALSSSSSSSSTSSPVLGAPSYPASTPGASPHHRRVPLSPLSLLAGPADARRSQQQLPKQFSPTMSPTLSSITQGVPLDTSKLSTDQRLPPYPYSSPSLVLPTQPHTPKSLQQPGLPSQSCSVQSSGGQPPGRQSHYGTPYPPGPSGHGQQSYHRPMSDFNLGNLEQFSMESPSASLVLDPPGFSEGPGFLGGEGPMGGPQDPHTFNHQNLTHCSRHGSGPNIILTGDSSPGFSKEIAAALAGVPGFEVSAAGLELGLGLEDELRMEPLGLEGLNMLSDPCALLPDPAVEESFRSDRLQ

## purified AMPK (AMP-activated protein kinase) (Upstate Biotech)
[1]
  in vitro kinase assay, 32P incorporation: Activated AMPK phosphorylated wild-type, but not Ser171Ala mutant GST-TORC2 (161-181) peptide in vitro
[2]
  in vitro kinase assay, 32P incorporation: Activated AMPK phosphorylated wild-type, but not Ser171Ala mutant GST-TORC2 (161-181) peptide in vitro
